From the nanobody polyreactivity screen of Harvey et al. (2022)

Experiment: yeast display, Sf9 membrane polyspecificity reagent, FACS + sequencing; frameworks hold sequencing errors
In short: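 After 36–48 hours of galactose induction, yeast (Saccharomyces cerevisiae BJ5465) displaying a synthetic nanobody library were stained at 4 °C for 1 hour with 10% biotinylated, detergent-solubilized Sf9 membrane reagent. Streptavidin microbeads enriched the stained cells before FACS sorting into low and high (top ~1%) gates on anti-HA and streptavidin fluorescence. Each clone's polyreactivity label reflects its gate of origin.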
For “QVQLVESGGGLVQAGGSLRLTCAASGSTFQTYVMGLYIQAPGKERELVAAISSGGSTNYADSVKGRFTISRDNAKNNVYLLMKSLKPEDTAVYYCAAVYWAWGKNEYEYWGQGTQVTVSS”, the “polyreactivity (PSR sort gate)” value was “low polyreactivity”.
For “QVQLVESGGGLVQAGGSLRLSCAASGRTFDYNAMGWYRQAPGKERELVAAISGSGTRTFYADSVKGRFTISRDNAKNTVYLQMNSLKPEDTAVYYCAASHGWSKSIFYYWGQGTQVTVSS”, the “polyreactivity (PSR sort gate)” value was “high polyreactivity”.
With “QVQHVESGGGLVQAGRSLRLSCAASGSIFRDNDMGWYRQATGKEREFVAAINWSGVSTYYADSVKGRFTISRDNAKNTVYLQMNSLKPEDTAVSYCAAGYLKWRRYNYWGQGTQVTVSS” the “polyreactivity (PSR sort gate)” value was “high polyreactivity”.
For “QVQLVESGAGLVQAGGSLRLCCAASGRIFRSYAMGLYREAPGKERELVAAITWSGGSTYYADSVKGRFTISRDNAKNSVYLQMNSQKPEETAVYYCARVDTKKYSHTGYEYWGQGTQVTVSS”, the “polyreactivity (PSR sort gate)” value was “high polyreactivity”.
For “QVQLVESGGGLVQAGGSLRLRSAATGRTYRLYAMGWYRQAPGKERELVAAITRGGRTNYADSVKGRFTISRDNAKNTVYLEMNSLKPEDTAVYYCAARYRLPIPGTQYEYWGQGTQVTVSS”, the “polyreactivity (PSR sort gate)” value was “low polyreactivity”.
In the case of “QVQLGESGGGLLPAGGSLGLSCAASGSTFGYYAMGWDRQAPGKERELVAAINSGDSTSYADSVKGRFTISRDNAKTTLYLQMNSMKPEDTAVYYCAVRPRRHQYGYWGQGTQVTLSS”, the “polyreactivity (PSR sort gate)” value is reported as “low polyreactivity”.
With “QVQLVESGGGLVQAGGSLRLSCAASGRTFEGNAMGWYRQAPGKERELVAAISWSGGSTYYANSVKGRFTISRDNAKNTVYLQMNSLKPEDTAVYYCAAVPVHTGSLYWGFTTGYDYWGQGTQVTVSS” the “polyreactivity (PSR sort gate)” value was “low polyreactivity”.
For “QVQLVESGGGLDQARGTLRLSCAASGITITLYAMGWYRQTPGKESELVAAISRGGGTTNYADSVKGRFTISRDNAKNTVFLELNSLKPEDNAVYYCAAAYTIYWFSYRVLYYYWGQGTQVTVSS”, the “polyreactivity (PSR sort gate)” value was “low polyreactivity”.
With “QVQLVESGGGLVQAGGSLRLSCAASISSINAMGWYRQAPAKEREVVAASRWSGSSTYYADSVKGRFTISRDNAKNTVYLQMNSLKPEDTAGYYCAADTTTGDRGFDYWGQGTQVTVSS” the “polyreactivity (PSR sort gate)” value was “high polyreactivity”.
For “QVQLVESGGGLVQAGGSLRLSCAASGFTFGAYAMGWYRQAPGKERELVASISWSGGSTYYADSVKGRFTISRDNAKNTVYLQLNSLKPEDTAVYYCNKDFVYPDDDGLFDYWGQGTQVTVSS”, the “polyreactivity (PSR sort gate)” value was “low polyreactivity”.
In the case of “QVQLVESGGGLVQAGGSLRLRCAASGSIFTSYALGWYRQAPGKERELVAAINGSGGSTFYADSVKSRFTISRDNAKYTFYLQMNSLKPEDTAVYYCNTGGPRGTTYDFWGLGTQVTVSS”, the “polyreactivity (PSR sort gate)” value is reported as “low polyreactivity”.
With “QVQLVESGGGLVQAGRSLRLSCAASGRIFFGYAMGWYRQAPGKERELVAVISSGCRTYYADSVKGRFTISRDNAKNTVYLQMNSLKAEDTAVYYCAAIIPPTKQRGYYYVGRSEYDYWGQGSQVTVSS” the “polyreactivity (PSR sort gate)” value was “low polyreactivity”.
With “QDQLVESGGGLVQAGGSLRLSCAASGSIFRRNSIGWYRQAPGKERELVAAIRWSSGSTYYADSVKGRFTISRDNAKNTVYLQMNSLKPEDTAVYYCAAAKRAYSYVLHAFYYWGQGTQVTVSS” the “polyreactivity (PSR sort gate)” value was “high polyreactivity”.
In the case of “QDQLVESGGGLVQAGGSLRLSCAASGSTFRRYAIGWYRQAPGKERELVAAITSGGRTNYADSVKGRFTISRDNAKNTVYLQMNSLKPEDTAVYYCNAKAYKLGQSYWGYDYWGQGTQVTVSS”, the “polyreactivity (PSR sort gate)” value is reported as “high polyreactivity”.
With “QVQLVESGGGLVQAGGSLRLSCAASGLNFYYYAMGWYRQAPGKESELVAAISGGGSTYYADSVKGRFTISRDNAKNTVYLQMNSLKPEDTAVYYCAASYWYPSWLYDYWGQGTQVTVSS” the “polyreactivity (PSR sort gate)” value was “low polyreactivity”.
In the case of “QVQLVDSGGGLVQAGGILRLICAASGSTFGFYAMGWYRQAPGKERELVAAITTGGSTNYADSVKGRFTISRDNAKNTVYLQMNSLKPEDTAVYYCNADVFWNPYYDYDFWGQGTQVTVSS”, the “polyreactivity (PSR sort gate)” value is reported as “high polyreactivity”.
With “QVHLVESGGGLVQAGGSLRLSCAASGLTFIPNAMGWYRQAPGKERELVAAISGTGGSTYYADSVKGRFTISRDNAKNTVYLQMNRLKPEDTAVYYCAARRRYKSGYWGQGTQVTVSS” the “polyreactivity (PSR sort gate)” value was “high polyreactivity”.
With “QVQIVESGGGLVQAGGSLRLSCAASGNTFPAYAMGWYRQAPGKERELVATISWSTGSTNYADSVKGRFTISRDNANNTVYLQMNSLKPEDTAVYYCNKRYPTDQMYYWGQGTLVTVSS” the “polyreactivity (PSR sort gate)” value was “low polyreactivity”.
With “QVQLVESGGGLVQAGGSLRLSCAASGRIIQYNAMGWYRQAPGKERELVAAISWRSRRTYYADSVKGRFTISRDNAKNTVYIQMNSLKPEDTAVYYCAATSRTSWYGYWGQGTQVTVSS” the “polyreactivity (PSR sort gate)” value was “high polyreactivity”.
For “QVQLQESGGGLVQAGGSLRLSCAASGYISYLDFMGWYRQAPGKERELVAGITTGATTNYADSVKGRFTISRDNAKNIVYHQMNSLKPEDTAVYYCAVIGGDTRGHPYWGQGSQVTVSS”, the “polyreactivity (PSR sort gate)” value was “low polyreactivity”.
With “QGQLVESGGGLVQAGVTLRLSCAASGITFPWYAMGWYRQAPGKERELVASITSGGSTNYADSVKGRFTISRDNSKNTVYLQMNSLKPEDTAVSYCARDWYSPVYWAAGYDAWGSGYDYWGQGTQVTVSS” the “polyreactivity (PSR sort gate)” value was “high polyreactivity”.
For “QVQLVESGGGLVQAGGSLRLRCAASGSTFTKNAMGWYRQAPGKERELVAAISFTTGRTYYADSVKGRFTISRDNAKNTVYLQMNSLKPEDTAVYYCNKVYARSEQRGPVAGNYWGQGTQVTVSS”, the “polyreactivity (PSR sort gate)” value was “high polyreactivity”.
With “QVQLVESGVGLVQAGGSLRLSCAASGRIFYTYAMGWYRQAPGKERELVAAISSRTGSTYYADSVKGRFTISRDNAKNTVYLQMNSLKPEDTAVYYCAAYLWKSKRKLDYWGQGTQVTVSS” the “polyreactivity (PSR sort gate)” value was “high polyreactivity”.
With “QVQLVESGGGLVQAGGSLRLSCAASGRIFRIYAMGWNRQAPGKERELVARLTYSGGSTYYADSVKGRFTISRDNAKNTVYLQMNSLKPEDTAVYYCAADWLGYQYGYWGQGTQVTVSS” the “polyreactivity (PSR sort gate)” value was “low polyreactivity”.
With “QVQLVESGGGLVQAGGILLLSCAASGGTFENYAMGWYIQAPGKERELVAAISSGGSTNYADSVKGRFTISRDNAKNTVYLQMNRLKPEDTAVYYCARYRVWGSNGHKLFHYDYWGQGTQVTVSS” the “polyreactivity (PSR sort gate)” value was “low polyreactivity”.
With “QVQLVESGGGLVQAGGSLRLSCAASGSTLSYNAMGWYRQAPGKERELVAAISWSDGGTYYADSVKGRFTISRDTAKNTVFLQMNSLKPEDTAVYYCAARRGVRYSKFGYYYWGQGTQVTVSS” the “polyreactivity (PSR sort gate)” value was “high polyreactivity”.
For “QVQLVESGGGLVQAGGSLRLSCAASGRIFSRYTMGWYRQAPGKERELVAAISSRGGSTYYADSVKGRFTISRDNAKNTVYLQMNSLKREDTAVYYCNTPSYSGSSPYDHWGQGTQVTVSS”, the “polyreactivity (PSR sort gate)” value was “high polyreactivity”.
In the case of “QVQLVESGGGLVQAGGSLRLSCAASVRTFDSYTMGWYRPAPGKERELVAAIRSSGGRTYADSVKGRFTISRDNAKNTVYLQMNSLKPEDTAVYYCAAARSYWAKYYYWGQGTQVTVSS”, the “polyreactivity (PSR sort gate)” value is reported as “high polyreactivity”.
In the case of “QVQLVESGGGLVQAGGSLRLSCDASGFIFRYYDMGWYRQAPGKERELVAAISWRGGRTYYADSVKGRFTISRDNAKNTVYLQMNSLKPEVTAVYYCAAGFSLWTYPKPYGEDSWGQGTQVTVSS”, the “polyreactivity (PSR sort gate)” value is reported as “high polyreactivity”.
In the case of “QVQLVESGGGLVQAGGSLRLSCAASGFTFSDYAMGWYRQAPGKERELVAAISTRGSSTYYADSVKGRFTISRDNAKNTVYLQMNSLKPEDTAVYYCNAVGSYSGYYYWGQGTQVTVSS”, the “polyreactivity (PSR sort gate)” value is reported as “high polyreactivity”.
In the case of “QVQLVESGGGLVQAGGSLRLSCAASGIIFWYYAMGWYIQAPGKERELVAAFSSGGSTTYADSVKGRFTISRDNAKNTVYLQINSLKPEDTAVYYCAASVRGIRYDYWGQGTQVTVSS”, the “polyreactivity (PSR sort gate)” value is reported as “low polyreactivity”.
In the case of “QVQLVESGGGLVQAGGSLRLSCAASGSTFTYYTMGWSRQAPGKERELVAASSRTTGSTYYADSVKGRFTISRDNAKNTVYLQMNSLIPEDTAVYYCAAQSYKILLYFIGTAGDGYWGQGTQVTVSS”, the “polyreactivity (PSR sort gate)” value is reported as “low polyreactivity”.
For “QVQLVESGGGLVQAGGSLRLSCAASGGTFAQYVMGWYRQAPGKERELVAAISRTGGRTYYADSVKGRFTISRDNAKNTVYLQMNSLKPEDTAVYYCARVYTSYGTPWTNYDYWGQGTQVTVSS”, the “polyreactivity (PSR sort gate)” value was “high polyreactivity”.
For “QVQLVESGGALVQAGGSLRLSCAASGRTFLGYGMGWYRQAPGKERVLVAAITSGGGSTYYADSVKGRFTISRDNAKNPVYLQMNSLKPEDTAVYYCSAKYYRAYCPHSRTRGYWGQGTQVTVSS”, the “polyreactivity (PSR sort gate)” value was “high polyreactivity”.
For “QVQLVESVRGLVQAGGSLRLSCAASGSIFDYNAMGWYREAPGKEREFVASITYSGGSTNYADSVKGRFTISRDNAKNTVYLQMNSLKPEDTAVYYCSKTIGIVWIYYPGARYDYWGQGTQVTVSS”, the “polyreactivity (PSR sort gate)” value was “low polyreactivity”.
With “QVQLVESGGGLVQAGGSLRLSCAASGRTFFIYAMGWYRQAPGKERELVARITGGGRTYYADSVKGRFTISRDNAKNTVYLQMNSLKPEDTAVYYCAKRSYVTYPPYDYWGQGSQVTVSS” the “polyreactivity (PSR sort gate)” value was “high polyreactivity”.
For “QVQLVESGGGLVQAGGSLRLSCAASGFNFGNYAMGWYRQAPGKERELVAVISRGGSTYYADSVKGRFTISRDYAKNSVYLQMNSLKPEDTAVYFCAARAFPPYGYDYWGQGTQVTVSS”, the “polyreactivity (PSR sort gate)” value was “high polyreactivity”.
In the case of “QVQLVESGGGLVQAGGSLRLSCAASGIILDRNAMGWYRQAPGKERELVAAINSIGGSTYYADSVKGRFTISRDNAKKTVYLQMNSLKPEDTAVYYCAAPSTSSYYWGQGTQVTVSS”, the “polyreactivity (PSR sort gate)” value is reported as “low polyreactivity”.
In the case of “QVQLVESGGGLVQAGGSLRLSCAASGFTFEGNAMGWYRQAPGKEREFVAAITSNGGGTYYADSVKGRFTISRDNAKNTVYLQMNSLKPEDTAVYDCAATYWTWYSWYDYWGQGTQVTVSS”, the “polyreactivity (PSR sort gate)” value is reported as “high polyreactivity”.
In the case of “QVQLLESGGGLVQAGGSLRLSCAASGRIFSENAMGWYRQAPGKERELVAAITGNGGDTYYADSVKGRFTISRDNAMNTVYLQMNSLKPEDTAVYYSAAETGGLGGEYWGQGTHVTVSS”, the “polyreactivity (PSR sort gate)” value is reported as “low polyreactivity”.
With “QVQLVESGGGLVQAGGSLRLSCAASGTFVTYMGWYRQSPGKEREMVAAIRNGGSTNYADSVKGRFTISRDNAKNTVYLQMNSLKPEDTAVYYCAARVTYSRGYRGGSRTKYDYWGQGTQVTVSS” the “polyreactivity (PSR sort gate)” value was “low polyreactivity”.
In the case of “QVQLVESGGGLVQAGGSLRISCAASGSTFWYYAMGRYREAPGKERELVAAIRRGGSTYYADSVKGRFTISRDNAKNTVYLQLNSLKPDDTAGYYCAAERPYKTFGYGDWGQGTQVTVSS”, the “polyreactivity (PSR sort gate)” value is reported as “high polyreactivity”.
With “QVQLVESGGGLVQAGGSLRLSCAASGLTFRYYAMGWDRPAPGKERELVAAITASVGSTYYADSVKGRFTISRDNAKNTVYLQMNSLNPEDTAVYYCNADLSYFFGPYWGLYGLDYWGQGTQVTVSS” the “polyreactivity (PSR sort gate)” value was “low polyreactivity”.
